According to the supplement of paper PMC12764529:
± gives the half width of the 95% confidence interval.

Columns and labels:
[1] = folding stability dG unfold from trypsin proteolysis; higher = more stable
Summary of the method: (§1)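 Unfolding free energy was derived, per protease or combined, against a sequence-predicted unfolded-state K50 and a shared folded-state K50, starting from K50 inferred by Bayesian fitting of sequencing counts. Digestion with trypsin and chymotrypsin was carried out on designed mini-proteins under 80 residues without cysteine in a PA-tagged cDNA display construct. Only designs with AlphaFold2 dimer inter-PAE above 15 were kept.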

[2] = folding stability dG unfold (combined trypsin and chymotrypsin); higher = more stable
Summary of the method: as §1

[3] = folding stability dG unfold from chymotrypsin proteolysis; higher = more stable
Summary of the method: as §1

| Sequence | folding stability dG unfold [1] | folding stability dG unfold [2] | folding stability dG unfold [3] |
| --- | --- | --- | --- |
| SAGGTMTIEAWVKYKDMTPEEMREQAKEIAENIMNMMRQRGFPIKKIEVDVEQDPGNGWVQVTIEIEFSAGG [r13_212_TrROS] | 3.45 ± 0.15 kcal/mol | 4.24 ± 0.18 kcal/mol | 4.62 ± 0.13 kcal/mol |
| SAGGSEEFELEFRVEAASPEEAEALAEEIRKRLEDLGLDVEVEAETLEPGAVVVRPRVRVDPETGRLDSAGG [r13_697_TrMRF] | 0.126 ± 0.24 kcal/mol | 0.956 ± 0.16 kcal/mol | 1.29 ± 0.065 kcal/mol |
| SAGGSAGGMVRFDPAGGRLFLDGVPVELSEVLSVESLEEEGRVRVEALLVDGSRLEFEIPKEALSAGGSAGG [r6_682_JUSTAS] | 1.73 ± 0.036 kcal/mol | 2.13 ± 0.029 kcal/mol | 2.323 ± 0.021 kcal/mol |
| SAGGSAGGSAGGSKYEIEILKIEELEDDSYRITAKINIPEAGTTEEITLTVPKGVELKLSAGGSAGGSAGGS [r4_133_TrMRF] | 1.21 ± 0.017 kcal/mol | 1.23 ± 0.072 kcal/mol | 1.21 ± 0.062 kcal/mol |
| SAGGKYKIEIEITEIKEKEDGTKEITIKIKIYDEETGELIYTITVKMRIDKKTNKIIIEEVKIEKLPPSAGG [r13_596_TrROS_Hall] | 4.22 ± 0.29 kcal/mol | > 6 kcal/mol | 6 ± 0.36 kcal/mol |
| SAGGSAEEARALAEQVREEVRAAHAPDEVVTVTVELPDGTRVEVTFDAAGEVLSVTIYRPDGTPELSAGGSA [r2_84_JUSTAS] | 1.04 ± 0.025 kcal/mol | 1.88 ± 0.077 kcal/mol | 2.27 ± 0.049 kcal/mol |
| SAGGSAGGDRLEVVAPVDDPVEQAREFAERLREEFRRRYPDREIDRVEVFYDPGARTLHVRLYPSAGGSAGG [r6_662_TrMRF] | 2.12 ± 0.026 kcal/mol | 2.51 ± 0.066 kcal/mol | 2.704 ± 0.024 kcal/mol |
| SAGGSAGGSMRLDLDDIKRVEREPTPNGMRVYEIKLKGHKLPIRYHDNKIEISPEFKDLLKDISAGGSAGGS [r20_92_TrROS] | -0.382 ± 0.19 kcal/mol | -0.253 ± 0.15 kcal/mol | -0.483 ± 0.23 kcal/mol |
| SGSSLLSETTEFVELPDDTFATVSTSTYYIPGSGEIVTKTTVTIYPPTGPPVTTTYTSTTTPEGVLVTESSA [r9_856_JUSTAS] | 2.38 ± 0.13 kcal/mol | 3.31 ± 0.2 kcal/mol | 3.59 ± 0.15 kcal/mol |
| SAGGMITLTVTREDWDTVYAKLKAEKNVTVKVVKGNTWSTYPASEVKALREEIPADPNEPLTLEIVESAGGS [r16_377_JUSTAS] | 0.0201 ± 0.18 kcal/mol | 0.283 ± 0.23 kcal/mol | 0.382 ± 0.24 kcal/mol |
| SAGGSAGGSAGRMLVIEIEMPGRKRTFMIPTPDGPPIKAEELADKLGFDNVTVKIHPIDDSAGGSAGGSAGG [r11_219_TrROS] | -0.12 ± 0.55 kcal/mol | 0.0664 ± 0.16 kcal/mol | 0.261 ± 0.31 kcal/mol |
| SAGGSAGGSAGGSKPMYLFTVETENGKKLVIEAKSLEEALKALEKAGYKIKKVEVVKLPSAGGSAGGSAGGS [r4_213_TrROS_Hall] | 3.36 ± 0.1 kcal/mol | 3.81 ± 0.071 kcal/mol | 3.996 ± 0.036 kcal/mol |
| SAGGSAMSVDPVGERTTITILYKDKPVTVPTGPLEEVEREVAAVLEEIEAKTGRKISPDTEVSFVPSAGGSA [r15_496_JUSTAS] | -0.283 ± 0.3 kcal/mol | 0.318 ± 0.16 kcal/mol | 0.595 ± 0.17 kcal/mol |
| SSAEELARRLAAELAERLPPGARITDVRIERRADGTVTITVTVELPDGRTLTVTITLDLATGEITIEIHPSA [r9_219_TrROS_Hall] | 4.95 ± 0.16 kcal/mol | 4.89 ± 0.19 kcal/mol | 4.35 ± 0.26 kcal/mol |
| SAGGSAGGSGSSSLLEETTDASGVRHLLTLVRLPGGKVLLVTTTVYPSGESTTTTEETDGSLLSAGGSAGGS [r12_995_JUSTAS] | 2.58 ± 0.06 kcal/mol | 2.11 ± 0.059 kcal/mol | 1.53 ± 0.036 kcal/mol |
| SAGGSAGRSRPLRLRFENPENGLRTEVELRVFEIGDYRVILLRERTYHPDTPGLSERDLLILLPPESAGGSA [r15_960_TrMRF] | 3.03 ± 0.058 kcal/mol | 3.35 ± 0.1 kcal/mol | 3.508 ± 0.023 kcal/mol |

| Sequence | folding stability dG unfold [1] | folding stability dG unfold [2] | folding stability dG unfold [3] |
| --- | --- | --- | --- |
| SAGGSMKEIVELGEVEFEEDSVALKVKFKVKLVFYDPETGEKVEEREEELEVYFGGDTLEFSPVEGSAGGSA [r2_271_TrMRF] | 1.49 ± 0.045 kcal/mol | 2.08 ± 0.11 kcal/mol | 2.373 ± 0.02 kcal/mol |
| SAGGSMVKEIEIPVPEDWTPEDAVEAAREYLEANPELENVIVRFTLPDGTPLVVEIKPGGKIVKVTPESAGG [r13_690_JUSTAS] | 1.71 ± 0.069 kcal/mol | 2.83 ± 0.15 kcal/mol | 3.26 ± 0.07 kcal/mol |
| SAGGKVKVTVTPDGTVTIEFEAESVEEAIKAAKAFLEEAGFEVESIPVEVPPDGTVKVTAKIKPKNASAGGS [r8_253_TrMRF] | 1.33 ± 0.06 kcal/mol | 1.67 ± 0.14 kcal/mol | 1.79 ± 0.11 kcal/mol |
| SAGGMIAPDEKVLVKVTLSEGTTSRELEFEFEVPPGATEEELKQRVIDEIPEEPRKNWKVEVEIKPVSAGGS [r16_321_JUSTAS] | 0.918 ± 0.056 kcal/mol | 0.596 ± 0.21 kcal/mol | 0.198 ± 0.24 kcal/mol |
| SAGGSAGGSAMPLTSPEEAARHIKEALERLFPSSFPDRVIDPDVVVFTRPDGRVVALVKLKASAGGSAGGSA [r18_440_TrMRF] | 0.877 ± 0.023 kcal/mol | 1.11 ± 0.068 kcal/mol | 1.27 ± 0.073 kcal/mol |
| SAGGSAGGSAGGGKPVKVIVVEVGGKKVLVTFDEDTGKLTVYNLDTGKTETVTVSPEDLSAGGSAGGSAGGS [r10_669_TrROS_Hall] | 1.83 ± 0.12 kcal/mol | 1.77 ± 0.16 kcal/mol | 1.67 ± 0.066 kcal/mol |
| SAGGGPPAKPVYLTVTVTTEDPVETAKKVEEEVKKLFPDAEILKVEVKKNPETNLYTVTVYVKKLVKSAGGS [r8_120_TrMRF] | 2.67 ± 0.075 kcal/mol | 4.3 ± 0.092 kcal/mol | 4.58 ± 0.079 kcal/mol |
| SAKIEINPEGGQIEMDYELNGKKVKITIQMPPENGMFPVKIEPPDLGKPIEVPYPFNSVDDMLDWAAEASAG [r14_803_TrROS] | 0.488 ± 0.11 kcal/mol | 0.433 ± 0.36 kcal/mol | 0.74 ± 0.13 kcal/mol |
| SAGGGSMTTVRLTREINLPSSVSDEEIIEEIKEELPENYEILEVKIEKDPKTGKYYIEAEVKIPKLGSAGGS [r16_396_JUSTAS] | 0.904 ± 0.027 kcal/mol | 1.88 ± 0.056 kcal/mol | 2.269 ± 0.02 kcal/mol |
| SAGGMEVEITIVVPPGASLEEIEELARKLAEELGLSVENIKVTVIVVEPEEEEEEEEEKKLKEEEEKSAGGS [r16_240_TrROS_Hall] | 1.93 ± 0.17 kcal/mol | 2.57 ± 0.55 kcal/mol | 3.04 ± 0.56 kcal/mol |
| SAGGSAGGSAGGSPNWKWVEMEITFNVPPGAKITIPNGIKLTVPPGDPVTIKIYIAVPPSAGGSAGGSAGGS [r4_232_TrROS] | 1.94 ± 0.12 kcal/mol | 2.47 ± 0.31 kcal/mol | 2.96 ± 0.048 kcal/mol |
| SAGGSAVVVTTDPNGTLTVYADNKVVKVKVIPLPRPDPLTGSTSTLLLVEVEVSPLKPDPLPPEFPSAGGSA [r15_515_TrMRF] | 2.21 ± 0.2 kcal/mol | 2.44 ± 0.2 kcal/mol | 2.65 ± 0.12 kcal/mol |
| SAGKPLTPDEAKELAEELVDAFAEEFARRHGMPPDDMKVIEVEETPDGYIQVTFRMPNMPMKFEIPVKDSAG [r5_565_TrROS] | 0.435 ± 0.057 kcal/mol | 0.366 ± 0.1 kcal/mol | 0.277 ± 0.11 kcal/mol |
| SAGGTATLVIPRIYKGSPEEAARAVQEIADALAALGYDVEVDATVYPVGDYLVVTVTVTVTAPPDSPLASAG [r5_217_TrMRF] | 2.62 ± 0.099 kcal/mol | 2.63 ± 0.15 kcal/mol | 2.82 ± 0.046 kcal/mol |
| SAGGSALADRIKEIARENGFEPESVQFDPGNGHLMISIEPPDGRGVVVQIDIDNNNLKIQIQPLDDSAGGSA [r15_561_TrROS] | 1.2 ± 0.075 kcal/mol | 1.03 ± 0.13 kcal/mol | 0.792 ± 0.099 kcal/mol |
